The values below come from EP2149585A1 (Novartis Vaccines and Diagnostics, Inc., dated 2010).

For assay [1], the target named is T1, Recombinant soluble CD40-his (human, UniProt P25942 21-193).
T1 construct: Soluble recombinant CD40 with his tag used in Biacore
Put plainly: Biacore SPR, CD40-his over captured antibody. On the technique in general: Surface plasmon resonance follows binding to a sensor surface in real time, without labels.

Assay [2] concerns the target T2, CD40 extracellular Domain 2 GST fusion protein (human, UniProt P25942 61-104).
T2 construct: Secreted from insect cells with a GP67 secretion signal; not shown: glutathione S-transferase (GST) fusion partner
T2 chain: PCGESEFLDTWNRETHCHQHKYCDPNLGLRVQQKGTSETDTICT
Put plainly: SDS-PAGE and western blot of GST-domain fusion proteins from insect cell supernatant.

Assay [3] addresses T3, CD40 Domain 2 peptide, spot 22 (human).
T3 construct: 10mer on a SPOTs membrane
T3 peptide: YCDPNLGLRV
Put plainly: SPOTs membrane of 10mer peptides, antibody at 10 µg/ml.

Assay [4] has as its target T4, CD40 Domain 2 peptide, spot 18 (human).
T4 construct: 10mer on a SPOTs membrane
T4 peptide: HQHKYCDPNL
The description is as above.

The target of assay [5] is T5, CD40 Domain 2 peptide, spot 21 (human).
T5 construct: 10mer on a SPOTs membrane
T5 peptide: KYCDPNLGLR
The assay is described as above.

Assay [6] addresses T6, CD40 Domain 2 peptide, spot 19 (human).
T6 construct: 10mer on a SPOTs membrane
T6 peptide: QHKYCDPNLG
The assay is described as above.

Assay [7] concerns the target T7, CD40 Domain 2 peptide, spot 20 (human).
T7 construct: 10mer on a SPOTs membrane
T7 peptide: HKYCDPNLGL
Described as above.

Assay [8] deals with T1, Recombinant soluble CD40-his. Put plainly: Biacore SPR: antibody captured on immobilized protein A, CD40-his flowed at varying concentrations; 1:1 model, global fit.
Assay [9] addresses human CD40 on the cell surface (human, UniProt P25942 20-277). Briefly: cell-based or functional assay.
For assay [10], the target named is T8, CD40 extracellular Domain 2 GST fusion protein (human, UniProt P25942 61-104).
T8 construct: Expressed in insect cells with a GP67 secretion signal; not shown: GST fusion partner
T8 chain: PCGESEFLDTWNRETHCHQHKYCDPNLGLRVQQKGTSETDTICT
Briefly: Western blot, GST fusion of Domain 2 from insect cell supernatant. In general terms: A western blot detects proteins with antibodies after separation by electrophoresis.

Assay [11] addresses T9, CD40 extracellular Domain 4 GST fusion protein (human, UniProt P25942 145-187).
T9 construct: Expressed in insect cells with a GP67 secretion signal; only the domain stood in the assay; not shown: GST fusion partner
T9 chain: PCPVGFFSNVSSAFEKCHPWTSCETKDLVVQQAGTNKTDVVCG
Briefly: Western blot, GST fusion of the domain from insect cell supernatant.

The target of assay [12] is T10, CD40 extracellular Domain 1 GST fusion protein (human, UniProt P25942 21-60).
T10 construct: Expressed in insect cells with a GP67 secretion signal; only the domain stood in the assay; not shown: GST fusion partner
T10 chain: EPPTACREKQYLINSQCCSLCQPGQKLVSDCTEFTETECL
The assay is described as above.

In assay [13] the target is T11, CD40 extracellular Domain 3 GST fusion protein (human, UniProt P25942 105-144).
T11 construct: Expressed in insect cells with a GP67 secretion signal; only the domain stood in the assay; not shown: GST fusion partner
T11 chain: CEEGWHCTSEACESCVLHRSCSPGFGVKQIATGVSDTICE
Described as above.

Assay [14] has as its target T12, CD40 Domain 2 10mer peptide, spot 20 (HKYCDPNLGL) (human).
T12 peptide: HKYCDPNLGL
Briefly: SPOTs peptide membrane probed with the mAb at 10 µg/ml, anti-human IgG beta-galactosidase secondary; spot 20 listed as positive.

For assay [15], the target named is T13, CD40 Domain 2 10mer peptide, spot 19 (QHKYCDPNLG) (human).
T13 peptide: QHKYCDPNLG
Briefly: SPOTs peptide membrane probed with the mAb at 10 µg/ml, anti-human IgG beta-galactosidase secondary; spot 19 listed as positive.

Assay [16] has as its target T14, CD40 Domain 2 10mer peptide, spot 18 (HQHKYCDPNL) (human).
T14 peptide: HQHKYCDPNL
Briefly: SPOTs peptide membrane probed with the mAb at 10 µg/ml, anti-human IgG beta-galactosidase secondary; spot 18 listed as positive.

The target of assay [17] is T15, CD40 Domain 2 10mer peptide, spot 21 (KYCDPNLGLR) (human).
T15 peptide: KYCDPNLGLR
Put plainly: SPOTs peptide membrane probed with the mAb at 10 µg/ml, anti-human IgG beta-galactosidase secondary; spot 21 listed as positive.

Assay [18] has as its target T16, CD40 Domain 2 10mer peptide, spot 22 (YCDPNLGLRV) (human).
T16 peptide: YCDPNLGLRV
Briefly: SPOTs peptide membrane probed with the mAb at 10 µg/ml, anti-human IgG beta-galactosidase secondary; spot 22 listed as positive.

The target of assay [19] is T3, CD40 Domain 2 peptide, spot 22. Briefly: SPOTs membrane of 10mer peptides, stripped and reprobed.
Assay [20] concerns the target T5, CD40 Domain 2 peptide, spot 21. The description is as above.
In assay [21] the target is T7, CD40 Domain 2 peptide, spot 20. The assay is described as above.
For assay [22], the target named is T16, CD40 Domain 2 10mer peptide, spot 22 …. Put plainly: SPOTs peptide membrane stripped and reprobed with the mAb; spot 22 listed as recognized.
Assay [23] addresses T15, CD40 Domain 2 10mer peptide, spot 21 …. Briefly: SPOTs peptide membrane stripped and reprobed with the mAb; spot 21 listed as recognized.
Assay [24] concerns the target T12, CD40 Domain 2 10mer peptide, spot 20 …. Put plainly: SPOTs peptide membrane stripped and reprobed with the mAb; spot 20 listed as recognized.

Chain of human CD40 on the cell surface (P25942 20-277): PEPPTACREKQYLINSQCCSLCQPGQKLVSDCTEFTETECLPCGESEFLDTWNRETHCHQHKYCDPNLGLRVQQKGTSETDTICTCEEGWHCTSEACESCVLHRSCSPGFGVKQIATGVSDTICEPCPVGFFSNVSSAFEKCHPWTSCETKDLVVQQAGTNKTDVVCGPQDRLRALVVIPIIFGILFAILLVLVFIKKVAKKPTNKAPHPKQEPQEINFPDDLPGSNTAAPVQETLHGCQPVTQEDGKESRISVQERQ

B1: CHIR-12.12 (antibody, human IgG1, kappa)
heavy: not shown
light: DIVMTQSPLSLTVTPGEPASISCRSSQSLLYSNGYNYLDWYLQKPGQSPQVLISLGSNRASGVPDRFSGSGSGTDFTLKISRVEAEDVGVYYCMQARQTPFTFGPGTKVDIRRTVAAPSVFIFPPSDEQLKSGTASVVCLLNNFYPREAKVQWKVDNALQSGNSQESVTEQDSKDSTYSLSSTLTLSKADYEKHKVYACEVTHQGLSSPVTKSFNRGEC
Take B1: in assay [1], the “fold difference in the off rate against CHIR-5.9” value was 121 fold. Also, the “fold higher affinity against CHIR-5.9” value in assay [1] is 24 fold. The binding result in assay [2], in assay [3], in [4], in [5], in [6] and in assay [7] was “binds” throughout. In assay [8], the dissociation constant (Kd) (commonly a measure of binding affinity in units of concentration) was found to be 0.51 nM. Also, the dissociation rate constant (koff) (commonly a measure of how fast the partners let go of each other) in assay [8] was determined as 0.000124 s⁻¹. In addition, the on-rate (kon) (as a rule, a measure of how fast the partners come together) in [8] stood at 241000 M⁻¹ s⁻¹. Also, the “average IC50 of inhibition of CD40 ligand-induced lymphocyte proliferation, lymphocytes from 6 donors” value in assay [9] was found to be 0.047 nM.

B2: monoclonal antibody CHIR-12.12 (antibody, human IgG1, kappa)
light: DIVMTQSPLSLTVTPGEPASISCRSSQSLLYSNGYNYLDWYLQKPGQSPQVLISLGSNRASGVPDRFSGSGSGTDFTLKISRVEAEDVGVYYCMQARQTPFTFGPGTKVDIRRTVAAPSVFIFPPSDEQLKSGTASVVCLLNNFYPREAKVQWKVDNALQSGNSQESVTEQDSKDSTYSLSSTLTLSKADYEKHKVYACEVTHQGLSSPVTKSFNRGEC
heavy: not shown
notes: Fully human IgG1 kappa anti-human CD40 mAb; Leader residues (1-20 light, 1-19 heavy) left out as stated
As for B2, the binding result is “binds” in assay [10], “no binding” in assay [11], “no binding” in assay [12] and “no binding” in [13].

B3: anti-CD40 monoclonal antibody CHIR-12.12 (antibody, human IgG1, kappa)
light: DIVMTQSPLSLTVTPGEPASISCRSSQSLLYSNGYNYLDWYLQKPGQSPQVLISLGSNRASGVPDRFSGSGSGTDFTLKISRVEAEDVGVYYCMQARQTPFTFGPGTKVDIRRTVAAPSVFIFPPSDEQLKSGTASVVCLLNNFYPREAKVQWKVDNALQSGNSQESVTEQDSKDSTYSLSSTLTLSKADYEKHKVYACEVTHQGLSSPVTKSFNRGEC
heavy: not shown
notes: Fully human IgG1 kappa
Consider B3, for which the binding result in assay [14], in assay [15], in [16], in assay [17] and in assay [18] was “binds” in each case.

B4: CHIR-5.9 (antibody, human IgG1, kappa)
heavy: not shown
light: AIVMTQPPLSSPVTLGQPASISCRSSQSLVHSDGNTYLNWLQQRPGQPPRLLIYKFFRRLSGVPDRFSGSGAGTDFTLKISRVEAEDVGVYYCMQVTQFPHTFGQGTRLEIKRTVAAPSVFIFPPSDEQLKSGTASVVCLLNNFYPREAKVQWKVDNALQSGNSQESVTEQDSKDSTYSLSSTLTLSKADYEKHKVYACEVTHQGLSSPVTKSFNRGEC
notes: also called mAb CHIR-5.9
For B4, the binding result in assay [2], in assay [19], in [20] and in assay [21] was “binds” in each case. For the same molecule, in [8], the equilibrium dissociation constant (Kd) stood at 12.2 nM. For the same molecule, the koff in [8] came out at 0.015 s⁻¹. In [8], the kon was 1.24e+06 M⁻¹ s⁻¹.

B5: anti-CD40 monoclonal antibody CHIR-5.9 (antibody, human IgG1, kappa)
light: AIVMTQPPLSSPVTLGQPASISCRSSQSLVHSDGNTYLNWLQQRPGQPPRLLIYKFFRRLSGVPDRFSGSGAGTDFTLKISRVEAEDVGVYYCMQVTQFPHTFGQGTRLEIKRTVAAPSVFIFPPSDEQLKSGTASVVCLLNNFYPREAKVQWKVDNALQSGNSQESVTEQDSKDSTYSLSSTLTLSKADYEKHKVYACEVTHQGLSSPVTKSFNRGEC
heavy: not shown
notes: Fully human IgG1 kappa; also called mAb CHIR-5.9; CHIP-5.9
In the case of B5, the binding result in assay [22], in assay [23] and in [24] was “binds” each time.

B6: monoclonal antibody CHIR-5.9 (antibody, human IgG1, kappa)
light: AIVMTQPPLSSPVTLGQPASISCRSSQSLVHSDGNTYLNWLQQRPGQPPRLLIYKFFRRLSGVPDRFSGSGAGTDFTLKISRVEAEDVGVYYCMQVTQFPHTFGQGTRLEIKRTVAAPSVFIFPPSDEQLKSGTASVVCLLNNFYPREAKVQWKVDNALQSGNSQESVTEQDSKDSTYSLSSTLTLSKADYEKHKVYACEVTHQGLSSPVTKSFNRGEC
heavy: not shown
notes: Fully human IgG1 kappa anti-human CD40 mAb; Leader residues (1-20 light, 1-19 heavy) left out as stated; also called mAb CHIR-5.9
Consider B6, for which the binding result in [10] was “binds”; in [11] it was “no binding”; in [12] it was “no binding”; in assay [13], “no binding”.
